US20180214568A1 (US Dept. of Health and Human Services, published 2018)
One block for each binder: values may come before it.

Molecular target: T1, mouse CD56 (mouse, UniProt P13595 20-711, limits assumed)
T1 construct: the construct is not described
Assay: ELISA on coated mouse CD56 ectodomain, IgG titrated, OD405
Description: Protein was coated on ELISA plate wells at 50 ng/well in PBS at 4° C. overnight. After blocking of unbound surface with 2% non-fat dried milk in PBST, serially diluted antibody solutions were added, and incubated for 2 hours at 37° C. The bound human antibodies were detected with goat anti-human Fc specific IgG conjugated with horseradish peroxidase.

T1 sequence (P13595 20-711 limits assumed): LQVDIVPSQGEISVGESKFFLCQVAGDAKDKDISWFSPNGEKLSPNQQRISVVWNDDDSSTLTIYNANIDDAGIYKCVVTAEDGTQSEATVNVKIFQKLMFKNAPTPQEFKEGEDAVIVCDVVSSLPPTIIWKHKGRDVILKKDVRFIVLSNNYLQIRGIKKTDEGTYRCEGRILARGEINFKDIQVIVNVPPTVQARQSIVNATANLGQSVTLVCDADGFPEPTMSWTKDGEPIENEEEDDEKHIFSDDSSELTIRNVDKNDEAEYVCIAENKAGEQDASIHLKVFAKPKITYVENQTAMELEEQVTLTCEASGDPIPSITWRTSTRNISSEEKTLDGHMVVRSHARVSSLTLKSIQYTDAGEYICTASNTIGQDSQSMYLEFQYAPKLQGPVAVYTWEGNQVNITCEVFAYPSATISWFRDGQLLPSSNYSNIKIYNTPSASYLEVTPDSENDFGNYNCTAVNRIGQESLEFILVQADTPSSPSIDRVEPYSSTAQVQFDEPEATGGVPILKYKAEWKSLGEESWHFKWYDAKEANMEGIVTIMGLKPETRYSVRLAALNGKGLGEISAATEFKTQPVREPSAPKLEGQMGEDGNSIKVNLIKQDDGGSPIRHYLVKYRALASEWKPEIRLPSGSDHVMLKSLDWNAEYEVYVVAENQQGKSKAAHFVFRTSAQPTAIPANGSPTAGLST

EC50 (read off the curve): ~0.08 nM
B1: m906 IgG1 (antibody, V domains shown)
VH: EVQLVQSGAEVKKPGSSVKVSCKASGGTFTGYYMHWVRQAPGQGLEWMGWINPNSGGTNYAQKFQGRVTMTRDTSISTAYMELSRLRSDDTAVYYCARDLSSGYSGYFDYWGQGTLVTVSS
VL: DVVMTQSPLSLPVTPGEPASISCRSSQSLLHSNGYNFLDWYLQKPGQSPQLLIYLGSNRASGVPDRFSGSGSGTDFTLKISRVEADDVGVYYCMQSLQTPWTFGHGTKVEIKR

binding result: no binding (tested: 1000 nM)
B2: m900 IgG1 (antibody, V domains shown)
VH: not shown
VL: EIVLTQSPATLSLSPGERATLSCRASQSVSSYLAWYQQKPGQAPRLLIYDASNRATGIPARFSGSGSGTDFTLTISSVQAEDVGVYYCQQYHGTPTFGQGTKVEIKR
